The values that follow come from US20240368304A1.

The target of the assay is epidermal growth factor receptor variant III (EGFRvIII) on U87EGFRvIII cells (UniProt P00533). Kind of assay: cell-based or functional assay.

Consider “2173 CD28zeta CAR (EGFRvIII specific CAR) on transduced primary human T cells”, for which the % cytolysis (killing) of U87 VIII GFP target cells, xCELLigence eSight impedance was 100% and the Human IFN-gamma release from CAR T cells co-cultured with U87 VIII GFP target cells (sandwich ELISA, E:T 10:3) is 4750.
